Measurements published in paper PMC10515946.

Assays:
[1] = target: BG505 SOSIP (soluble Env trimer of HIV-1 BG505) (HIV-1 strain BG505); test: cryo-EM structure
[2] = target: 1059 SOSIP (TPA-1059 SOSIP, soluble Env trimer of the transmitted/founder HIV-1 strain 1059), purifi (HIV-1 strain 1059); test: cryo-EM structure

Substance	stoichiometry N [1]	stoichiometry N [2]
BG505 SOSIP (soluble Env trimer of HIV-1 BG505) (complex)	3	
1059 SOSIP (TPA-1059 SOSIP, soluble Env trimer of the transmitted/founder HIV-1 strain 1059), purifi (complex)		3
